{"source": "paper doi:10.1101/803361", "target": "Fluorescein-labelled Hsf1 peptide with the Hsc70 binding site in the TAD, residues 461-471 (human) (UniProt Q00613)", "sequence (Q00613 whole entry, looked up, the tested form may be a part)": "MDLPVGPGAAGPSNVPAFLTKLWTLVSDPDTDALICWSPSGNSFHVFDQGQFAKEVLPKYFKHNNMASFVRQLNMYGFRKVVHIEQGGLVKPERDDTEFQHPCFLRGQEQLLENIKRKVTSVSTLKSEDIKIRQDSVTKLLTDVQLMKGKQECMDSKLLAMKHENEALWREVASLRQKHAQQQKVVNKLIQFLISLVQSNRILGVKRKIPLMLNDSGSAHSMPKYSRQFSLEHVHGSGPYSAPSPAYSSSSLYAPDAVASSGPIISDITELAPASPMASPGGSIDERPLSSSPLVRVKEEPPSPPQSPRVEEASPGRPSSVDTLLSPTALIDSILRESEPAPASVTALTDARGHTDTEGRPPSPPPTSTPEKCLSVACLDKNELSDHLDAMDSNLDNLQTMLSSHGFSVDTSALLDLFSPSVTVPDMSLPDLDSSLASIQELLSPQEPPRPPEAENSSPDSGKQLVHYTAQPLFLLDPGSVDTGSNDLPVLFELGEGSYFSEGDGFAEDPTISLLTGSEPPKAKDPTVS", "test": "fluorescence polarisation", "data": [{"substance": "Human Hsc70 (HSPA8), wild type (from UniProt P11142 1-646) (natural protein)", "values": [{"measurement": "Kd", "value": "5 to 30", "unit": "µM"}]}]}
